Reference: patent US12533393B2, “Vibrio cholerae protein for use against cancer” (priority 2019, dated 2026)

How the values were obtained:
HCT8 cells = test: MakA with 5FU, tumor cell morphology; assay type: cell-based, human; details: HCT8, compared to untreated control
Procedure: B) Change in tumor cell morphology in response to MakA and 5FU or MakA at different concentration in combination with 5FU (20 μM). Scale bar=30 μm
Further, the effect on tumor cell morphology was investigated. Unlike 5FU or MakA alone, the combination of MakA and 5FU caused massive changes in tumor cell morphology (FIG. 8B).

CT26 cell line = test: CT26 xenograft mice model of colon cancer; assay type: in vivo; details: repeated intratumor injection, 25 μg, from day 9, sacrificed day 21, versus vehicle
Procedure: A) Colon cancer was established using the rapidly proliferating CT26 cell line. From day 9, mice were treated by repeated intratumor injection of MakA (25 μg) or Vehicle (Tris 20 mM) at indicated intervals and sacrificed on day 21.
The therapeutic effect of MakA against colon cancer was investigated in a well-established colon cancer model. Colon cancer was established using the rapidly proliferating CT26 cell line. From day 9, mice were treated by repeated intratumor injection of MakA (25 μg) or Vehicle (Tris 20 mM) at indicated intervals and sacrificed on day 21 (FIG. 7A).

[1] = test system: PIP5K1α, PLCβ, caspase-3 in HCT8 cells; test: Immunoblot of phospholipid signaling proteins; assay type: cell-based, human; details: HCT8, MakA 500 nM
Procedure: The effects of MakA on PIP5K1α, PLCβ, actin and caspase-3 were investigated. For immunoblot analysis, HCT8 cells treated with control or MakA toxin were collected and lysed with lysis buffer containing (50 mM Tris, 100 mM NaCl, 1 mM EDTA, 1 mM DTT, 1% Triton X 100, 2% SDS with 1× protease inhibitor cocktail and 1× phosphatase inhibitor). Protein samples were resolved on SDS-PAGE and processed for immunoblotting according to standard procedures. Antisera used were anti-PIP5K1a polyclonal antiserum (1:2000), anti-PLCβ polyclonal antiserum (1:2000), anti-actin polyclonal antiserum (1:5000), and anti-caspase 3 antiserum (1:1000) (all from Cell Signaling Technology, Inc).

[2] = test system: human colon carcinoma cells, HCT8; oral fibroblasts, PDL1; test: Live cell microscopy of cell morphology; assay type: cell-based; details: HCT8 versus PDL1
Procedure: Cells were grown in 96 well plate (1×10^4/well, Tecan Group Ltd) overnight and treated with MakA at different concentration for 48 hours at +37° C., 5% CO2. Fluorescence and bright field images were captured with fluorescence microscope (Nikon, Eclipse Ti). Images were processed using the NIS-Elements (Nikon) and ImageJ software. For live cell confocal microscopy, cells were grown on a coverslip and treated with Alexa-568 labelled MakA for 6 or 24 hours at +37° C., 5% CO2.
(§1) However, overexpression of at least three components (makCBA) or whole operon (makDCBA) was required for induction of lethality to C. elegans (FIG. 1A). The effect of purified MakA protein was investigated on in vitro cultured human tumor cell lines of diverse origin (HCT8 and DLD1=colon cancer cell, PC3=Prostate cancer cells, HTB9=Bladder cancer cell, PC3=Prostate cancer cell, Suit2=Pancreatic cancer cell, MCF7=Breast cancer cells).

[3] = test system: human tumor cell lines of diverse origin (HCT8, DLD1, PC3, HTB9, Suit2, MCF7); test: Cell death assays (PrestoBlue, MTS) in tumor cell lines; assay type: cell-based; details: 48 hours
Procedure: For cell death experiments, cells were grown on 96-well plate (1×10^4/well, Tecan Group Ltd) overnight and treated with MakA at different concentration for 48 hours at +37° C., 5% CO2. Cell death was quantified by two different biochemical methods: (1) reduction in PrestoBlue staining; and (2) reduction in MTS absorbance. Cell death is expressed as percentage (%) of untreated control cells for PrestoBlue assay or reduction in absorbance for MTS assay.
as §1

B1: MakA (protein, listed as Vibrio cholerae)
chain: MSQQVTQLNPTQQTTQSAFLATTVITAQCHAILNTQFTPPTVKPDWFDDLSKKLDSAKLVAKQWIDDLGPQVSASIPSSVINFDATFQASIDAIHELYKADPTASGKDNTTVQQASQIMTALSSQVSGIEATVKGMNKELSDWGVKMQAAHDDLVNGATNIQKTIIDLQTDIESMNNAIDNNRAAIEKLNKDLVYAQVAVGVGIFMLVAGVALTVATAGTAAAVSGGIAAVGAASIIAGGVTWGVLQNQIDDDYDSIAQEQKQKAEDQQQIIALQGLSNASSAVVSAIETSTSVLSDFETTWTVFGNELDDVVTKLNNGASMQSIIMEKVMSDAAKNEWDDAVELAKQLASAKIAIETKELAPAVKQAA
tumor cell morphology (HCT8 cells): caused rounding of the cells | tumor volume (CT26 cell line): caused significant reduction in tumor volume | cleaved caspase-3 [1]: expression of cleaved caspase-3 was also observed | level of PIP5Kα [1]: efficiently reduce the level of PIP5Kα | level of PLC-β [1]: reduced level of PLC-β | plasma membrane remodeling [2]: induced plasma membrane remodeling in human colon carcinoma cells, HCT8 but not in oral fibroblasts, PDL1 | cell death in tumor cells [3]: induces cell death in diverse range of tumor cells in a dose-dependent manner
